Series [1] has as its system Saccharomyces cerevisiae. Put plainly: protein stability index of tFT-peptide fusion (C-terminal peptide) (PSI (0-1 scale)); higher = more stable (slower turnover). Particulars: genetic background: wild type; temperature: 30 C.
Series [2] concerns Saccharomyces cerevisiae. The series is described as above. On the procedure:
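MPS profiling in S. cerevisiae of the tFT-X12 degron library: putative degron peptides plus stable controls, 12 aa, fused to the C-terminus of a sfGFP-mCherry timer. Cells are FACS-sorted into 8 mCherry/sfGFP bins and deep-sequenced. PSI runs from 0 (unstable) to 1 (stable). Backgrounds are wild type, das1Δ and doa10Δ at 30 °C, and wild type, das1Δ, cdc34-1 and cdc53-1 at 37 °C; 2-3 technical replicates each.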

[3] abbreviates: genetic background: cdc34-1, temperature: 37 C.
[4] abbreviates: genetic background: cdc53-1, temperature: 37 C.
Where [5] appears, read: genetic background: das1 deletion, temperature: 30 C.
Where [6] appears, read: genetic background: das1 deletion, temperature: 37 C.
The mark [7] stands for this setting: genetic background: doa10 deletion, temperature: 30 C.
The mark [8] stands for this setting: genetic background: wild type, temperature: 30 C.
The mark [9] stands for this setting: genetic background: wild type, temperature: 37 C.

± gives the standard deviation of the averaged measurements.
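Note: PSI is a weighted mean of sequencing reads over stability bins, variants kept only with over 10 reads, mCherry proximal and sfGFP distal, peptide attached via GGGS linker.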

As to AYPAHQLLVSCL, the protein stability index is 0.482 ± 0.028 in the series on Saccharomyces cerevisiae [1]; 0.509 ± 0.012 in the series on Saccharomyces cerevisiae [2] (setting [3]); 0.511 ± 0.021 with Saccharomyces cerevisiae [2] (setting [4]); 0.405 ± 0.026 with Saccharomyces cerevisiae [2] (setting [5]); 0.5435 ± 0.0014 in the series on Saccharomyces cerevisiae [2] (setting [6]); 0.351 ± 0.016 in the series on Saccharomyces cerevisiae [2] (setting [7]). Besides, the protein stability index with Saccharomyces cerevisiae [2] (setting [8]) was found to be 0.384 ± 0.038; in the series on Saccharomyces cerevisiae [2] (setting [9]), 0.5 ± 0.024.
For CCGWSGCVSGVL, the protein stability index in the series on Saccharomyces cerevisiae [1] came to 0.717 ± 0.018; in the series with Saccharomyces cerevisiae [2] (setting [3]) it was 0.698 ± 0.029; in the series with Saccharomyces cerevisiae [2] (setting [4]) it was 0.7602 ± 0.0038; in the series on Saccharomyces cerevisiae [2] (setting [5]), 0.638 ± 0.014; in the series on Saccharomyces cerevisiae [2] (setting [6]) it was 0.7418 ± 0.0014; with Saccharomyces cerevisiae [2] (setting [7]), 0.651 ± 0.012. Further, the protein stability index was found to be 0.657 ± 0.02 with Saccharomyces cerevisiae [2] (setting [8]) and 0.74 ± 0.024 in the series on Saccharomyces cerevisiae [2] (setting [9]).
For CCMLCVVAWSGV, the protein stability index in the series with Saccharomyces cerevisiae [1] came out at 0.359 ± 0.0042; in the series with Saccharomyces cerevisiae [2] (setting [3]) it was 0.424 ± 0.044; in the series on Saccharomyces cerevisiae [2] (setting [4]), 0.517 ± 0.097; in the series on Saccharomyces cerevisiae [2] (setting [5]) it was 0.303 ± 0.027; in the series on Saccharomyces cerevisiae [2] (setting [6]) it was 0.5581 ± 0.0018; in the series with Saccharomyces cerevisiae [2] (setting [7]), 0.257 ± 0.0051. Besides, the figures for the protein stability index with Saccharomyces cerevisiae [2] (setting [8]) and with Saccharomyces cerevisiae [2] (setting [9]) were 0.295 ± 0.056 and 0.524 ± 0.0054, respectively.
For the sequence CCSGWSVRLLCV, the protein stability index in the series with Saccharomyces cerevisiae [1] worked out at 0.37 ± 0.025; with Saccharomyces cerevisiae [2] (setting [3]) it was 0.578 ± 0.066; in the series on Saccharomyces cerevisiae [2] (setting [4]), 0.606 ± 0.036; in the series with Saccharomyces cerevisiae [2] (setting [5]), 0.494 ± 0.033; in the series with Saccharomyces cerevisiae [2] (setting [6]), 0.625 ± 0.025; in the series on Saccharomyces cerevisiae [2] (setting [7]) it was 0.243 ± 0.0063. The protein stability index in the series on Saccharomyces cerevisiae [2] (setting [8]) is 0.269 ± 0.024; in the series on Saccharomyces cerevisiae [2] (setting [9]), 0.375 ± 0.0046.
On to CCVLGDRCIGSD, for which the protein stability index in the series with Saccharomyces cerevisiae [1] was determined as 0.678 ± 0.057; with Saccharomyces cerevisiae [2] (setting [3]), 0.699 ± 0.018; with Saccharomyces cerevisiae [2] (setting [4]), 0.735 ± 0.011; in the series on Saccharomyces cerevisiae [2] (setting [5]) it was 0.635 ± 0.013; in the series with Saccharomyces cerevisiae [2] (setting [6]) it was 0.76 ± 0.019; in the series with Saccharomyces cerevisiae [2] (setting [7]), 0.631 ± 0.013. Also, the protein stability index with Saccharomyces cerevisiae [2] (setting [8]) is 0.655 ± 0.022; in the series with Saccharomyces cerevisiae [2] (setting [9]), 0.718 ± 0.013.
As for CFGIFWLFARLK, the protein stability index in the series with Saccharomyces cerevisiae [1] came to 0.345 ± 0.059; in the series on Saccharomyces cerevisiae [2] (setting [3]) it was 0.281 ± 0.07; in the series on Saccharomyces cerevisiae [2] (setting [4]) it was 0.32 ± 0.03; with Saccharomyces cerevisiae [2] (setting [5]), 0.289 ± 0.022; with Saccharomyces cerevisiae [2] (setting [6]), 0.422 ± 0.0073; in the series on Saccharomyces cerevisiae [2] (setting [7]), 0.343 ± 0.018. The protein stability index in the series on Saccharomyces cerevisiae [2] (setting [8]) came to 0.274 ± 0.035; in the series on Saccharomyces cerevisiae [2] (setting [9]), 0.389 ± 0.035.
Consider CFVWFSVVLLFA, for which the protein stability index in the series on Saccharomyces cerevisiae [1] turned out to be 0.194 ± 0.0056; with Saccharomyces cerevisiae [2] (setting [3]), 0.109 ± 0.015; in the series on Saccharomyces cerevisiae [2] (setting [4]), 0.159 ± 0.0066; in the series on Saccharomyces cerevisiae [2] (setting [5]), 0.134 ± 0.028; in the series on Saccharomyces cerevisiae [2] (setting [6]) it was 0.227 ± 0.0053; in the series with Saccharomyces cerevisiae [2] (setting [7]), 0.136 ± 0.0019. For the same sequence, the protein stability index came to 0.117 ± 0.016 in the series with Saccharomyces cerevisiae [2] (setting [8]) and 0.202 ± 0.014 in the series with Saccharomyces cerevisiae [2] (setting [9]).
Regarding CFYSRTIILEHC, the protein stability index stood at 0.328 ± 0.015 in the series on Saccharomyces cerevisiae [1]; 0.503 ± 0.1 with Saccharomyces cerevisiae [2] (setting [3]); 0.506 ± 0.0072 in the series with Saccharomyces cerevisiae [2] (setting [4]); 0.464 ± 0.0086 with Saccharomyces cerevisiae [2] (setting [5]); 0.5003 ± 0.0025 in the series with Saccharomyces cerevisiae [2] (setting [6]); 0.23 ± 0.015 in the series on Saccharomyces cerevisiae [2] (setting [7]). For the same sequence, the protein stability index with Saccharomyces cerevisiae [2] (setting [8]) was determined as 0.233 ± 0.028; in the series on Saccharomyces cerevisiae [2] (setting [9]), 0.34 ± 0.015.
As for CGCLPYIGTKLC, the protein stability index stood at 0.165 ± 0.0027 in the series on Saccharomyces cerevisiae [1]; 0.463 ± 0.076 in the series with Saccharomyces cerevisiae [2] (setting [3]); 0.711 ± 0.026 in the series with Saccharomyces cerevisiae [2] (setting [4]); 0.647 ± 0.028 in the series with Saccharomyces cerevisiae [2] (setting [5]); 0.766 ± 0.013 in the series with Saccharomyces cerevisiae [2] (setting [6]); 0.087 ± 0.036 with Saccharomyces cerevisiae [2] (setting [7]). The protein stability index in the series on Saccharomyces cerevisiae [2] (setting [8]) turned out to be 0.117 ± 0.018; with Saccharomyces cerevisiae [2] (setting [9]), 0.106 ± 0.012.
Consider CHSICLVILEFI, for which the protein stability index with Saccharomyces cerevisiae [1] is 0.274 ± 0.034; with Saccharomyces cerevisiae [2] (setting [3]), 0.183 ± 0.0091; in the series with Saccharomyces cerevisiae [2] (setting [4]), 0.338 ± 0.049; with Saccharomyces cerevisiae [2] (setting [5]), 0.25 ± 0.05; in the series on Saccharomyces cerevisiae [2] (setting [6]), 0.436 ± 0.011; in the series on Saccharomyces cerevisiae [2] (setting [7]), 0.183 ± 0.03. Further, the protein stability index was found to be 0.198 ± 0.028 in the series with Saccharomyces cerevisiae [2] (setting [8]) and 0.384 ± 0.011 in the series on Saccharomyces cerevisiae [2] (setting [9]).
For CIFLLMAILSLA, the protein stability index in the series on Saccharomyces cerevisiae [1] is 0.411 ± 0.075; with Saccharomyces cerevisiae [2] (setting [3]) it was 0.48 ± 0.055; in the series with Saccharomyces cerevisiae [2] (setting [4]), 0.558 ± 0.0093; in the series with Saccharomyces cerevisiae [2] (setting [5]) it was 0.363 ± 0.029; in the series with Saccharomyces cerevisiae [2] (setting [6]), 0.534 ± 0.023; in the series on Saccharomyces cerevisiae [2] (setting [7]), 0.2341 ± 0.00064. For the same sequence, the protein stability index amounted to 0.27 ± 0.025 in the series with Saccharomyces cerevisiae [2] (setting [8]) and 0.427 ± 0.0079 in the series on Saccharomyces cerevisiae [2] (setting [9]).
In the case of CIIAVMISIVSF, the protein stability index in the series on Saccharomyces cerevisiae [1] turned out to be 0.0807 ± 0.031; with Saccharomyces cerevisiae [2] (setting [3]), 0.0342 ± 0.0065; with Saccharomyces cerevisiae [2] (setting [4]) it was 0.0959 ± 0.012; in the series on Saccharomyces cerevisiae [2] (setting [5]) it was 0.0327 ± 0.018; in the series with Saccharomyces cerevisiae [2] (setting [6]), 0.14 ± 0.035; in the series with Saccharomyces cerevisiae [2] (setting [7]), 0.02686 ± 0.00016. For the same sequence, the figures for the protein stability index in the series on Saccharomyces cerevisiae [2] (setting [8]) and in the series on Saccharomyces cerevisiae [2] (setting [9]) were 0.0274 ± 0.0082 and 0.0917 ± 0.023, respectively.
As for CILVSVDVIVFF, the protein stability index in the series with Saccharomyces cerevisiae [1] was 0.212 ± 0.005; in the series on Saccharomyces cerevisiae [2] (setting [3]) it was 0.0529 ± 0.014; in the series on Saccharomyces cerevisiae [2] (setting [4]), 0.147 ± 0.043; with Saccharomyces cerevisiae [2] (setting [5]), 0.118 ± 0.051; in the series on Saccharomyces cerevisiae [2] (setting [6]), 0.207 ± 0.0033; in the series on Saccharomyces cerevisiae [2] (setting [7]), 0.103 ± 0.016. Also, the protein stability index was 0.136 ± 0.026 in the series with Saccharomyces cerevisiae [2] (setting [8]) and 0.166 ± 0.036 in the series on Saccharomyces cerevisiae [2] (setting [9]).
With CLAGALSWLRRG, the protein stability index in the series on Saccharomyces cerevisiae [1] is 0.732 ± 0.018; with Saccharomyces cerevisiae [2] (setting [3]) it was 0.704 ± 0.034; in the series on Saccharomyces cerevisiae [2] (setting [4]), 0.7646 ± 0.006; in the series with Saccharomyces cerevisiae [2] (setting [5]), 0.662 ± 0.015; in the series with Saccharomyces cerevisiae [2] (setting [6]), 0.745 ± 0.022; in the series with Saccharomyces cerevisiae [2] (setting [7]), 0.637 ± 0.013. The figures for the protein stability index in the series on Saccharomyces cerevisiae [2] (setting [8]) and in the series with Saccharomyces cerevisiae [2] (setting [9]) were 0.646 ± 0.019 and 0.703 ± 0.022, respectively.
